Assay results published in publication PMC12167799, “The role of human Shu complex in ATP-dependent regulation of RAD51 filaments during homologous recombination–associated DNA damage response” (The Journal of Biological Chemistry, 2025).

Substrate: Nc1ncnc2c1ncn2[C@@H]1O[C@H](COP(=O)(O)OP(=O)(O)OP(=O)(O)O)[C@@H](O)[C@H]1O
Experiment: malachite green ATPase assay, Michaelis-Menten fit
Assay type: biochemical, Homo sapiens
Conditions: 1 μM protein, no DNA (basal activity), 37 °C
Excerpt: malachite green ATPase assay, Michaelis-Menten fit on hSWS1-SWSAP1 (human Shu complex)

B1: hSWS1-SWSAP1 (human Shu complex) (Homo sapiens) (protein)
chain: MPAAGPPLLLLGTPGSGKTALLFAAALEAAGEGQGPVLFLTRRPLQSMPRGTGTTLDPMRLQKIRFQYPPSTRELFRLLCSAHEAPGPAPSLLLLDGLEEYLAEDPEPQEAAYLIALLLDTAAHFSHRLGPGRDCGLMVALQTQEEAGSGDVLHLALLQRYFPAQCWLQPDAPGPGEHGLRACLEPGGLGPRTEWWVTFRSDGEMMIAPWPTQAGDPSSGKGSSSGGQP
notes: heterodimer co-expressed in High Five insect cells (baculovirus); SWSAP1 with TEV-cleavable N-terminal 6xHis tag (cleaved), SWS1 untagged; with Zinc finger SWIM domain-containing protein 7
Km: 10.0 ± 0.2 mM
Vmax: 0.75 µM/min
kcat: 0.0125 s⁻¹
kcat/Km: 1.3 M⁻¹ s⁻¹
